Data on one molecule can be found in publication PMC9146136 (2022).

For the assay, the target named is anti-mTNFα 3B11 VNAR (soluble, purified). Put plainly: BLI. For orientation: BLI is a label-free optical method that tracks binding on a fibre tip over time.

B1: extracellular domain of mTNFα (mTNFα ECD, 77-235aa) (domain or fragment)
chain: TLTLRSSSQNSSDKPVAHVVANHQVEEQLEWLSQRANALLANGMDLKDNQLVVPADGLYLVYSQVLFKGQGCPDYVLLTHTVSRFAISYQEKVNLLSAVKSPCPKDTPEGAELKPWYEPIYLGGVFQLEKGDQLSAEVNLPKYLDFAESGQVYFGVIAL
modifications: biotin (biotin-NHS labeling reaction) in the BLI assay only
As for B1, the koff was determined as 2.69e-05 s⁻¹.

By koff is commonly meant a measure of how fast the partners let go of each other. High values mean a short-lived complex, low ones a long-lived complex.
